Experimental data as given in patent US20130177598A1, “DISCRETE SIZE AND SHAPE SPECIFIC PHARMACEUTICAL ORGANIC NANOPARTICLES” (The University of North Carolina at Chapel Hill, priority 2007, published 2013).

Assay: Enzymatic activity assay of free horseradish peroxidase and PRINT particles thereof
Format: biochemical
Conditions: 10 ng/mL-10 mg/mL in buffer; compared with free horseradish peroxidase
Description: A standard enzymatic assay of horseradish peroxidase (reference P6782; Sigma Aldrich) was conduted on free horseradish peroxidase and PRINT particles thereof in the concentration range of 10 ng/mL-10 mg/mL in buffer. The substrates used were hydrogen peroxide and pyrogallol. […] See, FIG. 32.

horseradish peroxidase PRINT particles: PRINT particles of horseradish peroxidase, 200 nm x 200 nm cylinders
retention of biological structure and function after molding (enzyme activity): retains biological structure and function
